Source: patent US10400022B2, “Neuropilin-1 specific binding peptide, fusion protein fused with same, and use thereof” (AJOU UNIVERSITY INDUSTRY-ACADEMIC COOPERATION FOUNDATION, priority 2015, dated 2019)

Columns and labels:
FaDu cells = test: Tumor tissue penetration of co-administered doxorubicin (IHC); type: in vivo, Balb/c nude mice; conditions: doxorubicin 10 mg/kg with 2.5 mg/kg PBS, Fc or Fc-TPP11 intravenously, 1 hour
Procedure: In order to examine tumor tissue penetration of a small-molecule drug co-administered with the Fc-TPP11 constructed in the above-described experiment, immunohistochemistry was performed. Specifically, each of Balb/c nude mice was injected subcutaneously with 5×10^6 FaDu cells, and after about 15 days, when the tumor volume reached about 300 to 400 mm^3, 10 mg/kg of the anticancer drug doxorubicin and 2.5 mg/kg of each of PBS, Fc and Fc-TPP11 were injected intravenously into each mouse. At 1 hour after injection, the mouse heart was perfused with PBS and perfused with 4% para-formaldehyde to fix tissue. Next, the tumor tissue was extracted and subjected to immunohistochemistry. The extracted tumor was sectioned to a thickness of 20 μm by a frozen-section method, and the blood vessels were stained with the primary antibody CD31 (BD Pharmingen) and a FITC (green fluorescence)-labeled secondary antibody recognizing the same.
According to the same method as that used for FIG. 18(A), doxorubicin and each of PBS, Fc and Fc-TPP11 were injected intravenously into mice, and the mouse heart was perfused with PBS, and the tumor tissue was extracted. […] Then, the tissue was thawed at 37° C. and centrifuged, and the fluorescence (Excitation 485 nm/emission 528 nm) of the supernatant was measured to quantify the amount of doxorubicin penetrated.

HUVEC cells [1] = test: Tube formation assay in HUVEC; type: cell-based, human; conditions: VEGF165A 20 ng/ml, Fc-TPP11 1 μM, 8 hours
Procedure: VEGF165A is known to […] angiogenesis using NRP1 as a co-receptor. Based on this, as a method capable of observing angiogenesis in vitro, a tube formation assay was performed. In an experimental method, 50 μl of ECMatrix was added to a 96-well plate and polymerized at 37° C. for 2 hours. After 2 hours, HUVEC cells were suspended in EBM2 medium, mixed with VEGF165A (20 ng/ml), Fc or Fc-TPP11 (1 μM), plated on the ECMatrix at a density of 1×10^4 cells per well, and incubated for 8 hours. The incubated cells were imaged with a microscope.

HUVEC cells [2] = test: Wound healing assay (migration of vascular endothelial cells); type: cell-based, human; conditions: VEGF165A 20 ng/ml, 1 μM, 18 hours
Procedure: In addition to the results obtained in Examples 8(1) and 8(2), in order to examine the inhibitory activity of Fc-TPP11 against VEGF165A-induced migration of vascular endothelial cells, a wound healing assay was performed. In an experimental method, 5×10^5 HUVEC cells were seeded into each well of a 6-well plate, and then incubated in 0.5% serum EBM2 medium containing 1 μg/ml mitomycin c for 1 hour until the cells were saturated (95% or more) in the plate. The dish bottom was linearly rubbed with a yellow tip to make injury lines having a uniform width. Then, the cells were washed with PBS such that the cells were detached from the bottom. After removal of PBS, medium was added slowly to the HUVEC cells. The cells were treated with 0 or 20 ng/ml of VEGF165A, treated with each of Fc and Fc-TPP11 (1 μM), and then incubated under the conditions of 37° C. and 5% CO2. The cells were imaged with a microscope (Primo vert, Carl Zeiss co., Germany) at 0 hour and 18 hours, and the distance between both ends, measured with a computer program (AxioVision LE, Carl Zeiss co., Germany) included in the microscope, was statistically processed.

VE-cadherin = test: Western blot of VE-cadherin in HUVEC; type: cell-based, human; conditions: 10 minutes
Procedure: Specifically, 5×10^5 HUVEC cells were seeded into each well of a 6-well plate and incubated for 24 hours, […] constant Fc region and the selected peptide that binds specifically to NRP1, for 10 minutes, followed by Western blot analysis. After SDS-PAGE, the gel was transferred to a PVDF membrane, and detection was performed using primary antibodies (SantaCruz) that recognize VE-cadherin and β-actin and using HRP-conjugated secondary antibody (SantaCruz), and analysis was performed using ImageQuant LAS4000 mini (GE Healthcare).

[3] = test system: human umbilical vein endothelial cells (HUVECs); test: Transwell assay of penetration of vascular endothelial cells (dextran-FITC); type: cell-based; conditions: 1 μM for 30 minutes (VEGF165A about 1.3 nM); dextran-FITC fluorescence in lower chamber
Procedure: Specifically, 5×10^4 human umbilical vein endothelial cells (HUVECs) were seeded into the upper chamber of a transwell plate (Corning) and incubated in EGM2 for 3 days under the conditions of 37° C. and 5% CO2. […] Then, 50 μl of dextran-FITC (Sigma) was added to the upper chamber. After 30 minutes, based on the principle according to which the fluorescent substance would be observed when penetration into the vascular endothelial cells was increased, the medium was sampled from the lower chamber and the fluorescence thereof was measured.

HUVEC cells [4] = test: Transwell invasion assay of vascular endothelial cells; type: cell-based, human; conditions: VEGF165A 20 ng/ml, 1 μM, 12 hours
Procedure: Additionally, in order to examine the inhibitory activity of Fc-TPP11 against VEGF165A-induced invasion of vascular endothelial cells, a transwell assay was performed. A transwell (Corning Costar, USA) having a polycarbonate membrane with a […] pore size was used. Matrigel (Corning Costar, USA) was coated on the lower layer surface of the filter at a ratio of 1:10 and polymerized for 2 hours under the conditions of 37° C. and 5% CO2, and then 5×10^4 HUVEC cells and each of Fc and Fc-TPP11 (1 μM) were seeded in EBM2 medium in the upper layer well. In addition, EBM2 medium containing VEGF165A (20 ng/ml) was added to the lower layer well. Next, the cells were incubated for 12 hours under the conditions of 37° C. and 5% CO2, and then unmoved cells in the upper layer well were removed with cotton, and the cells were fixed with 4% para-formaldehyde. Then, the cells were stained with crystal violet.

Molecule: COc1cccc2c1C(=O)c1c(O)c3c(c(O)c1C2=O)C[C@@](O)(C(=O)CO)C[C@@H]3O[C@H]1C[C@H](N)[C@H](O)[C@H](C)O1 [doxorubicin]
- tumor tissue penetration of doxorubicin (FaDu cells): little or no red fluorescence was observed

B1: VEGF165A: vascular endothelial cell growth factor-A, NRP1 ligand used as control (protein)
chain: APMAEGGGQNHHEVVKFMDVYQRSYCHPIETLVDIFQEYPDEIEYIFKPSCVPLMRCGGCCNDEGLECVPTEESNITMQIMRIKPHQGQHIGEMSFLQHNKCECRPKKDRARQENPCGPCSERRKHLFVQDPQTCKCSCKNTDSRCKARQLELNERTCRCDKPRR
- tube formation (HUVEC cells [1]): tube formation increased
- migration activity of vascular endothelial cells (HUVEC cells [2]): increased the migration activity of vascular endothelial cells
- change in VE-cadherin (VE-cadherin): a decrease in VE-cadherin was observed
- ability to penetrate vascular endothelial cells [3]: had an increased ability to penetrate vascular endothelial cells
- invasion activity of vascular endothelial cells (HUVEC cells [4]): increased the invasion activity of vascular endothelial cells
